Data: IntAct's records for PubMed 25910212

B1: Mothers against decapentaplegic homolog 3 (Homo sapiens), P84022 (parent)
chain: MSSILPFTPPIVKRLLGWKKGEQNGQEEKWCEKAVKSLVKKLKKTGQLDELEKAITTQNVNTKCITIPRSLDGRLQVSHRKGLPHVIYCRLWRWPDLHSHHELRAMELCEFAFNMKKDEVCVNPYHYQRVETPVLPPVLVPRHTEIPAEFPPLDDYSHSIPENTNFPAGIEPQSNIPETPPPGYLSEDGETSDHQMNHSMDAGSPNLSPNPMSPAHNNLDLQPVTYCEPAFWCSISYYELNQRVGETFHASQPSMTVDGFTDPSNSERFCLGLLSNVNRNAAVELTRRHIGRGVRLYYIGGEVFAECLSDSAIFVQSPNCNQRYGWHPATVCKIPPGCNLKIFNNQEFAALLAQSVNQGFEAVYQLTRMCTIRMSFVKGWGAEYRRQTVTSTPCWIELHLNGPLQWLDKVLTQMGSPSIRCSSVS
B2: EF-hand domain-containing protein 1 (Homo sapiens), Q5JVL4 (parent)
chain: MVSNPVHGLPFLPGTSFKDSTKTAFHRSQTLSYRNGYAIVRRPTVGIGGDRLQFNQLSQAELDELASKAPVLTYGQPKQAPPADFIPAHVAFDKKVLKFDAYFQEDVPMSTEEQYRIRQVNIYYYLEDDSMSVIEPVVENSGILQGKLIKRQRLAKNDRGDHYHWKDLNRGINITIYGKTFRVVDCDQFTQVFLESQGIELNPPEKMALDPYTELRKQPLRKYVTPSDFDQLKQFLTFDKQVLRFYAIWDDTDSMYGECRTYIIHYYLMDDTVEIREVHERNDGRDPFPLLMNRQRVPKVLVENAKNFPQCVLEISDQEVLEWYTAKDFIVGKSLTILGRTFFIYDCDPFTRRYYKEKFGITDLPRIDVSKREPPPVKQELPPYNGFGLVEDSAQNCFALIPKAPKKDVIKMLVNDNKVLRYLAVLESPIPEDKDRRFVFSYFLATDMISIFEPPVRNSGIIGGKYLGRTKVVKPYSTVDNPVYYGPSDFFIGAVIEVFGHRFIILDTDEYVLKYMESNAAQYSPEALASIQNHVRKREAPAPEAESKQTEKDPGVQELEALIDTIQKQLKDHSCKDNIREAFQIYDKEASGYVDRDMFFKICESLNVPVDDSLVKELIRMCSHGEGKINYYNFVRAFSN
partner: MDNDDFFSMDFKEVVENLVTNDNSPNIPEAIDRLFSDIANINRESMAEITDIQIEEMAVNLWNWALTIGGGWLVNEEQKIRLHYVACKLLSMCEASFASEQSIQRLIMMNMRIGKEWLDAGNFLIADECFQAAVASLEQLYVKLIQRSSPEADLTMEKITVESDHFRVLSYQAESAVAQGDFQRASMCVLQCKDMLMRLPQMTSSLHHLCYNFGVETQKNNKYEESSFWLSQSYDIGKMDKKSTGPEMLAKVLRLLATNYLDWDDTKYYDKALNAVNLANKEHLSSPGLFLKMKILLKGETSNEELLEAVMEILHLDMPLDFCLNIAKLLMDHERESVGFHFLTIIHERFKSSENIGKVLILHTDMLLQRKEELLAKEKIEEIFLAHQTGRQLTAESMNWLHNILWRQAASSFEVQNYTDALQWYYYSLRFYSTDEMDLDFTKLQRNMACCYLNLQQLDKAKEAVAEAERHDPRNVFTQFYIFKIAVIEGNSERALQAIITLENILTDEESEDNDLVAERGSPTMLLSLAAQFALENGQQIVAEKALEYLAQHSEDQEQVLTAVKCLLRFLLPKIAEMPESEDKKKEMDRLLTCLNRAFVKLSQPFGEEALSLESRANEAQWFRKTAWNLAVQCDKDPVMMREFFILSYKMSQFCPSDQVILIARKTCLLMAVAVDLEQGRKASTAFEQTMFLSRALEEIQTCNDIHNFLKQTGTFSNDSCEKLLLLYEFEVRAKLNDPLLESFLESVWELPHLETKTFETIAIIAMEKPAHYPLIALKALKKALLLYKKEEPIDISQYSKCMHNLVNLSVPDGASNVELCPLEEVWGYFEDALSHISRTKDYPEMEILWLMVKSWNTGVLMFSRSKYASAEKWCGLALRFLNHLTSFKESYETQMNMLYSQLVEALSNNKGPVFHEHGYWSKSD

Variants of: B1
Conditions: with wwp1_human WWP1, Q9H0M0

Q: How did the “effect of a mutation on the interaction” value turn out when N197I was run?
A: The value was “with no effect”.

Q: With I170V as the variant, how does the “effect of a mutation on the interaction” value read?
A: The value was “with no effect”.

Variants of: B1
Conditions: with crx_human CRX

Q: For N197I, which “effect of a mutation on the interaction” value is on record?
A: The value was “with no effect”.

Q: I170V was tested. Which “effect of a mutation on the interaction” value did it give?
A: Its value is “with no effect”.

Variants of: B1
Conditions: with wwp2_human WWP2, O00308
Sequence of wwp2_human WWP2, O00308 (O00308 whole entry): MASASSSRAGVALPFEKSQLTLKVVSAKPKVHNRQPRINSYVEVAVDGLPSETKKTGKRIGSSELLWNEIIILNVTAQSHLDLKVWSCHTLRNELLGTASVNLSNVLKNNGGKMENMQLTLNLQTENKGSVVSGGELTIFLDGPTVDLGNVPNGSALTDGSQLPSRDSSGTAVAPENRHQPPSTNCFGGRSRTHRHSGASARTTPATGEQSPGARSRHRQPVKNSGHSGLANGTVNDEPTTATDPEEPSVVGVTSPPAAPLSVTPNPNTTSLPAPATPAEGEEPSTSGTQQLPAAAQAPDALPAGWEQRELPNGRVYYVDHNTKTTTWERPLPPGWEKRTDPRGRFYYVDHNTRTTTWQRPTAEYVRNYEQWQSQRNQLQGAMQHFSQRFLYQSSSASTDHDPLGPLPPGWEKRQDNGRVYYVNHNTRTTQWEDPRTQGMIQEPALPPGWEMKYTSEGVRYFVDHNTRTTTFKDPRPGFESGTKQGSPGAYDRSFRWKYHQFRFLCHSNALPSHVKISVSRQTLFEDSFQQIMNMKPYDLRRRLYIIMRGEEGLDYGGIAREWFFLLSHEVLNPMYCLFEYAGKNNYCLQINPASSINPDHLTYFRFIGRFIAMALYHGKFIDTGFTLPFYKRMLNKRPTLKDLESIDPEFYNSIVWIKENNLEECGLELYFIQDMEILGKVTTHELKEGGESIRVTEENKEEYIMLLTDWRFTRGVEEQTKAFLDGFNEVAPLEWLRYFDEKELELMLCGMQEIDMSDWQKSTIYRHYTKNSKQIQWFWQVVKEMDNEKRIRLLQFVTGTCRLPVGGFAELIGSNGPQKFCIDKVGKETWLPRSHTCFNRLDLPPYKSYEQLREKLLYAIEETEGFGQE

Q: How did the “effect of a mutation on the interaction” value turn out when N197I was run?
A: Its value is “with no effect”.

Q: With I170V as the variant, how does the “effect of a mutation on the interaction” value read?
A: Its value is “with no effect”.

Variants of: B1
Conditions: with smad4_human SMAD4, Q13485
Sequence of smad4_human SMAD4, Q13485 (Q13485 whole entry): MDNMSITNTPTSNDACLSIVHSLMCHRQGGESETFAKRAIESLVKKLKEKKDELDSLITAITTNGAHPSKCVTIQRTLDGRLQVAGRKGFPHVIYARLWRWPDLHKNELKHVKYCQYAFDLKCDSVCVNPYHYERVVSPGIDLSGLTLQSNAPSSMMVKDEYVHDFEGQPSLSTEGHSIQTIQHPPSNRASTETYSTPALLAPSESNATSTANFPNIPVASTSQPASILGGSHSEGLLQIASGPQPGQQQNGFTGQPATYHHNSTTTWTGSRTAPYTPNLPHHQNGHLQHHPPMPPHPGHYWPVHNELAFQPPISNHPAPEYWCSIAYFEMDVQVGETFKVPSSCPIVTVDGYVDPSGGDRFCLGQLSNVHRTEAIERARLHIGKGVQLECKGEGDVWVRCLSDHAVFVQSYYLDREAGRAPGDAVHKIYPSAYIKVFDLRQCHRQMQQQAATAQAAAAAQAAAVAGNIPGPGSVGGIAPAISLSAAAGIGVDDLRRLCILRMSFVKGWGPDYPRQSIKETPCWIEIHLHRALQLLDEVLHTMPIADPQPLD

Q: N197I was tested. Which “effect of a mutation on the interaction” value did it give?
A: The value was “with no effect”.

Q: I170V was tested. Which “effect of a mutation on the interaction” value did it give?
A: The value was “with no effect”.

Variants of: B1
Conditions: with meox2_human MEOX2, P50222
Sequence of meox2_human MEOX2, P50222 (P50222 whole entry): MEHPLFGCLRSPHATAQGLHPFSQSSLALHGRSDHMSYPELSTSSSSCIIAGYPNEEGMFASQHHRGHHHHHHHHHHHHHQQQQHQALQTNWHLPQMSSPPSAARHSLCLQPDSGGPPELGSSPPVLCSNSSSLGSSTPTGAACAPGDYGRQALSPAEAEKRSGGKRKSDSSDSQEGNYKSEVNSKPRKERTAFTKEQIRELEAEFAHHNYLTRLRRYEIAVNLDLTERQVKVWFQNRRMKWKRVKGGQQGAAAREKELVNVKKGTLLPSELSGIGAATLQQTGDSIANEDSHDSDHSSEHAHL

Q: How did the “effect of a mutation on the interaction” value turn out when N197I was run?
A: Its value is “with no effect”.

Q: For I170V, which “effect of a mutation on the interaction” value is on record?
A: The value was “with no effect”.

Variants of: B1
Conditions: with ccd33_human CCDC33, Q8N5R6
Sequence of ccd33_human CCDC33, Q8N5R6 (Q8N5R6 whole entry): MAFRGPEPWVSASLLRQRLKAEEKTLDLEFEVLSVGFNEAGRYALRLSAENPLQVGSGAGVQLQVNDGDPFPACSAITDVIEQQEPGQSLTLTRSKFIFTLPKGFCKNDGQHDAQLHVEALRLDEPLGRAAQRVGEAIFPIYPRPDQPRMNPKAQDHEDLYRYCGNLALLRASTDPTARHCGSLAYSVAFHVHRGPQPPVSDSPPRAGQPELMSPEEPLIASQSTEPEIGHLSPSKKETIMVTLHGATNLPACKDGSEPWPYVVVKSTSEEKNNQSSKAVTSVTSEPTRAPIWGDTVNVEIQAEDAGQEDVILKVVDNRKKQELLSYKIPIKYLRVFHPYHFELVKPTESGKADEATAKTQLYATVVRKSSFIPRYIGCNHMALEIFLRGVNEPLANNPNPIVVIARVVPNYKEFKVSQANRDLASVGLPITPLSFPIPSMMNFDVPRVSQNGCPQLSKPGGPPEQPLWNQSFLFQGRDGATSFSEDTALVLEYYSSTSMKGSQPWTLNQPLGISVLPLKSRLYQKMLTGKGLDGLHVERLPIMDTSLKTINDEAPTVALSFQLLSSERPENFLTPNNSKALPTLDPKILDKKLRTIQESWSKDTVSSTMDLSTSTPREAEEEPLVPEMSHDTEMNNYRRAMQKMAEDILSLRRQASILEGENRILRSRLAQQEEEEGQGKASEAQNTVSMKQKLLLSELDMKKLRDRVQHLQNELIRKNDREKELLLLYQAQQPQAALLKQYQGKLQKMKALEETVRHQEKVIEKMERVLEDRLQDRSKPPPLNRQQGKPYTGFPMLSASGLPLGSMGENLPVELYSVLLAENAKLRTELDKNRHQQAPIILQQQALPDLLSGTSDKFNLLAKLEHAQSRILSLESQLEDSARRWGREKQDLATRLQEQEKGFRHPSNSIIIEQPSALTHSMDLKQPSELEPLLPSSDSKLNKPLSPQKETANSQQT

Q: For N197I, which “effect of a mutation on the interaction” value is on record?
A: The value was “with no effect”.

Q: Which “effect of a mutation on the interaction” value does the source give for I170V here?
A: Its value is “with no effect”.

Variants of: B2
Conditions: with TEX11, Q8IYF3-3

Q: Which “effect of a mutation on the interaction” value does the source give for T508R here?
A: Its value is “with no effect”.
